Series [1] addresses c-Src SH2. Put plainly: SH2 binding enrichment of the phosphorylated peptide, bacterial display (enrichment ratio); higher = better substrate or ligand; peptides without Tyr show the background.
The target in series [2] is SHP2-C SH2. Described as above.
In series [3] the target is Grb2 SH2 (UniProt P62993). The description is as above.
The target in series [4] is FGFR1 (UniProt P11362). The experiment in a line: phosphorylation enrichment, bacterial display (enrichment ratio); higher = better substrate or ligand; peptides without Tyr show the background.
Series [5] has as its target Jak2 (UniProt O60674). The series is described as above.
The target of series [6] is EPHB2 (UniProt P29323). The description is as above.
Series [7] deals with c-Abl (mouse). The series is described as above.
Series [8] deals with MERTK (UniProt Q12866). Described as above.
MERTK, sequence (Q12866 whole entry, looked up): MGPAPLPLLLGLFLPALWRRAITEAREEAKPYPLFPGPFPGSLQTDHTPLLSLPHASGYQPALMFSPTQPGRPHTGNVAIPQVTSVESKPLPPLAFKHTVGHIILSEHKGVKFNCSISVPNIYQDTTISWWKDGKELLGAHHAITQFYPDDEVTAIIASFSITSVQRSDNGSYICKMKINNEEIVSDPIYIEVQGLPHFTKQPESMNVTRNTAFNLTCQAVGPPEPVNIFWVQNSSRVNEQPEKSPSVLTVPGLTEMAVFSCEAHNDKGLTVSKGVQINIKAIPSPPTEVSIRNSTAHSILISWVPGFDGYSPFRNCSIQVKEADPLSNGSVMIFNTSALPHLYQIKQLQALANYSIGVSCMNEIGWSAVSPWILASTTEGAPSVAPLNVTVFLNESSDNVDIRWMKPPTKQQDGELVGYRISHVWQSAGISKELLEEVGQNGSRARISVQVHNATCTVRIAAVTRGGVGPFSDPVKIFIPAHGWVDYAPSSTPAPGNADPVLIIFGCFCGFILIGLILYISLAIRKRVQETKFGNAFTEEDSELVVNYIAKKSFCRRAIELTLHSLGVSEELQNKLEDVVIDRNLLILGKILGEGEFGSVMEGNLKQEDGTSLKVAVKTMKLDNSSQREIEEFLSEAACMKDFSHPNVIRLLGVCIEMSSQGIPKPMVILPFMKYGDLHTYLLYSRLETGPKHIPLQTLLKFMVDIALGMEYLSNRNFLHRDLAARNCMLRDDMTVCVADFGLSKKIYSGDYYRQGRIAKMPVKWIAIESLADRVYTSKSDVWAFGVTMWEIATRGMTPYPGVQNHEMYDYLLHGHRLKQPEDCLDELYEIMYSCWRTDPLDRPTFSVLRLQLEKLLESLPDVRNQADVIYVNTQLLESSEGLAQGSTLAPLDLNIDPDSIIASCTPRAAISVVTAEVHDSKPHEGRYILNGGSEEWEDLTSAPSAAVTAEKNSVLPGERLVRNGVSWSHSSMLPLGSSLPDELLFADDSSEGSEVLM
Series [9] concerns the target FGFR3 (UniProt P22607). The description is as above.
The test system of series [10] is AncSZ. The series is described as above.
Series [11] deals with Hck (UniProt P08631). Described as above.
Hck, sequence (P08631 whole entry, looked up): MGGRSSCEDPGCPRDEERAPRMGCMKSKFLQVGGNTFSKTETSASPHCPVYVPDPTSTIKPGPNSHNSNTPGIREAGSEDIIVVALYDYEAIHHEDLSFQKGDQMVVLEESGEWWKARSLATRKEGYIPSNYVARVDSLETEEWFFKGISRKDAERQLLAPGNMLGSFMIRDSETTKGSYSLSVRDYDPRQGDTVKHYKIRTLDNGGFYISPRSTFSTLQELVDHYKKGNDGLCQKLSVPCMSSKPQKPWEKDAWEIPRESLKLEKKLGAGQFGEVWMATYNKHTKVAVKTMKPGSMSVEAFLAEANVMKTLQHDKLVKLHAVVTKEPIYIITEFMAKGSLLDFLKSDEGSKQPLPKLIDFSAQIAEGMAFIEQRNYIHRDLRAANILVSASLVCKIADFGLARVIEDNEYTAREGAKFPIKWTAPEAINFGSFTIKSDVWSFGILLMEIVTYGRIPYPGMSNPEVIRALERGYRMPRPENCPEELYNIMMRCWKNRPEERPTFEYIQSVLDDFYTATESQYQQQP
The target of series [12] is Fes (UniProt P07332). The series is described as above.
In series [13] the target is EPHB1 (UniProt P54762). The series is described as above.
EPHB1, sequence (P54762 whole entry, looked up): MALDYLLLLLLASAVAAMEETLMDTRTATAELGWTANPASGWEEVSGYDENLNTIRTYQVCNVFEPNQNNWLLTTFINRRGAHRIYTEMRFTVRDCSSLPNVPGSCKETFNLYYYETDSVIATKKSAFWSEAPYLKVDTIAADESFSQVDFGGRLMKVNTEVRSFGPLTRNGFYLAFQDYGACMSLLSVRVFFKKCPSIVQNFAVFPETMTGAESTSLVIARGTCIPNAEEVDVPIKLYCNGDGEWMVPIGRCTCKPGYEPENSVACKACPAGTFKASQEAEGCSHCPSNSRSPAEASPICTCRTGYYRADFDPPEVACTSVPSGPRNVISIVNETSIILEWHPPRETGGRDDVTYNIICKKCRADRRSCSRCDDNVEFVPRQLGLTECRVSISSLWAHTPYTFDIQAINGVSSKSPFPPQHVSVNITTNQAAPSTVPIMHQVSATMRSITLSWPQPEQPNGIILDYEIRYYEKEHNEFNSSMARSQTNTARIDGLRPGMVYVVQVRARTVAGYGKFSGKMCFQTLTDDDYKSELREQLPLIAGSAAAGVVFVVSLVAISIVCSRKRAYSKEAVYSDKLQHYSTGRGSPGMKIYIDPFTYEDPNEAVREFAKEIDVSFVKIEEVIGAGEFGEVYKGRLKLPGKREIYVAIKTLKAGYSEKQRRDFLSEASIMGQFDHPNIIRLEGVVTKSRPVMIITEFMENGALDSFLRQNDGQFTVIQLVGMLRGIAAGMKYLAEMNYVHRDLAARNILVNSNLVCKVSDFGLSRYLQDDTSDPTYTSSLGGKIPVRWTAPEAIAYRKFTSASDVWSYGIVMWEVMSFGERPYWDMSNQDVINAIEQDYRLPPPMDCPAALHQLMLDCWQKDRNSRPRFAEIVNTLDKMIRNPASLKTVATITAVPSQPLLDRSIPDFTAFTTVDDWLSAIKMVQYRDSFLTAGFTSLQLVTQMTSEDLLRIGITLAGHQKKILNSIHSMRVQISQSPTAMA
The target in series [14] is Fyn (UniProt P06241). The series is described as above.
Fyn, sequence (P06241 whole entry, looked up): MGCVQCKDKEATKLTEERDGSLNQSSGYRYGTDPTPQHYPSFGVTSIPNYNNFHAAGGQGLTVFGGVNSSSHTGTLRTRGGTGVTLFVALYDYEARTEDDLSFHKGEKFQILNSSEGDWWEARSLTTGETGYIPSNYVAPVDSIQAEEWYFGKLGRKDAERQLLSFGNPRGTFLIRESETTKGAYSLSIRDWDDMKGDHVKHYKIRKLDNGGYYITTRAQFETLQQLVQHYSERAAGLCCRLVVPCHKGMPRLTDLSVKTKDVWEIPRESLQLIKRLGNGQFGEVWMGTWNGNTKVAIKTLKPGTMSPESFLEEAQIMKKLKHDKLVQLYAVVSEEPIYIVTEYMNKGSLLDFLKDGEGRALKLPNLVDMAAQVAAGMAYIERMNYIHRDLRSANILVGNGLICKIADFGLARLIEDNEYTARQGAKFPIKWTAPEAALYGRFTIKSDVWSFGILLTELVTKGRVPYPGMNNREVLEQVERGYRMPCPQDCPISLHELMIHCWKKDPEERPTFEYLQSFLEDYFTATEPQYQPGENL
For series [15], the system named is c-Src. The description is as above.
For series [16], the system named is Fer (mouse). The description is as above.

Seven sequences from the supplement of paper PMC10065799, “High-throughput profiling of sequence recognition by tyrosine kinases and SH2 domains using bacterial peptide display” (eLife, 2023) can be followed below.
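For SH2 binding enrichment of the phosphorylated peptide, bacterial display in this document: peptide library displayed on the E. coli surface as eCPX fusions, selected cells deep-sequenced, score is each peptide's frequency after selection divided by its frequency in the input.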
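For phosphorylation enrichment, bacterial display in this document: 11-residue human phosphosite peptides and single-mutation variants displayed on the E. coli surface, counted by deep sequencing, each peptide's frequency after selection divided by its frequency in the unselected input library; frequency after pTyr selection over input frequency; kinase dosed for 20-30% of maximal phosphorylation in three min.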

Grb2 SH2, sequence (P62993 whole entry, looked up): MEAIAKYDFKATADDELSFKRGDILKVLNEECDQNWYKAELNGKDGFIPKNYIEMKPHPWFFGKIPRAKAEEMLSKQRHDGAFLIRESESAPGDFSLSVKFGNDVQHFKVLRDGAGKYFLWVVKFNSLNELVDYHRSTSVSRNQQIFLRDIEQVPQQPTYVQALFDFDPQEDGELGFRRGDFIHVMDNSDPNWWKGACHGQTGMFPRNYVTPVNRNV
Jak2, sequence (O60674 whole entry, looked up): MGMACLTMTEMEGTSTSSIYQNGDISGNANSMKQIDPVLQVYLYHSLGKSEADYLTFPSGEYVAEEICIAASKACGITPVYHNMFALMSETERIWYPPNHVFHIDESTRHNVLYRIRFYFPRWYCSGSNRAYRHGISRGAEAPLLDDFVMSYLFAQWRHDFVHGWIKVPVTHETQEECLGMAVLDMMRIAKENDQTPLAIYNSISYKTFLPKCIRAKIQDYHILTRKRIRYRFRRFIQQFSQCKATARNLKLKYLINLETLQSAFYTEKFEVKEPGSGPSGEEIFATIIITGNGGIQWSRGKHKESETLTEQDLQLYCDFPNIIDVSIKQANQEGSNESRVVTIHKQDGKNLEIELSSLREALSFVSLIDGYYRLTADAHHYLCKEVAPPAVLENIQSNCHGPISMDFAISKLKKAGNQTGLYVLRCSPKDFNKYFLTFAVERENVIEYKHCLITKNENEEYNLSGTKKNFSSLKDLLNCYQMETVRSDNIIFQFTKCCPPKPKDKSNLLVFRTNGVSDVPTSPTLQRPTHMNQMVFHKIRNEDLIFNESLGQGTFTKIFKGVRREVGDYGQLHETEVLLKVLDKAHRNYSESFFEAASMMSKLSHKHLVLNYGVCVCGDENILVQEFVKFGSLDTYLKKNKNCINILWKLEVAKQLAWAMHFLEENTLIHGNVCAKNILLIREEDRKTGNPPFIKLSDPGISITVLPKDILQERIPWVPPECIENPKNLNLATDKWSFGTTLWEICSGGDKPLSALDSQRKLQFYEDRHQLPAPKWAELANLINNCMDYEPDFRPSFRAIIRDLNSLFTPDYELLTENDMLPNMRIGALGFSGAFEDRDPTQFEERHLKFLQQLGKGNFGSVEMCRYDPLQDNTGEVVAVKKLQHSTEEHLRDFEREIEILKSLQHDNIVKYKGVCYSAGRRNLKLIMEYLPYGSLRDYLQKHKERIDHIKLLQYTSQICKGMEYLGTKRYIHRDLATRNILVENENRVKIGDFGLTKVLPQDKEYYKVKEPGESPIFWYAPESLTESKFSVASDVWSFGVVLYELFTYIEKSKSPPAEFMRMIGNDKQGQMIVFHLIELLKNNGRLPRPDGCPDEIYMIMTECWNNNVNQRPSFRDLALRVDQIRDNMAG

Regarding AKKKMYSLKTK [AGXT_Y231_R233L], the SH2 binding enrichment in series [1] stood at 1.54; in series [2], 1.51; in series [3], 1.2. Moreover, the phosphorylation enrichment in series [4] was 0.389; in series [5] it was 0.795; in series [6], 0.463; in [7], 0.773; in series [8], 0.435; in series [9], 0.853. The phosphorylation enrichment in series [10] was 0.404; in series [11] it was 0.44; in [12] it was 0.791; in [13], 0.317; in series [14], 0.365; in series [15], 0.434. For the same sequence, in series [16], the phosphorylation enrichment worked out at 0.373.
For the sequence AKKKMYSRKTK [AGXT_Y231], the SH2 binding enrichment in [1] stood at 0.409; in [2], 0.488; in series [3], 0.638. Also, the phosphorylation enrichment in series [4] amounted to 0.546; in series [5], 0.455; in series [6], 0.385; in [7], 0.478; in series [8] it was 0.457; in [9], 0.476. In addition, the phosphorylation enrichment in [10] was determined as 0.595; in series [11] it was 0.496; in series [12], 0.505; in [13], 0.437; in [14] it was 0.431; in [15] it was 0.42. Further, in series [16], the phosphorylation enrichment came out at 0.443.
As to ALKKPYSVLYK [RPF2_Y59_G60S], the SH2 binding enrichment worked out at 1.38 in series [1], 1.65 in [2] and 1.72 in series [3]. The phosphorylation enrichment amounted to 0.385 in series [4]; 0.467 in series [5]; 0.433 in [6]; 0.516 in [7]; 0.436 in [8]; 0.406 in series [9]. For the same sequence, the phosphorylation enrichment in series [10] was found to be 0.603; in [11], 0.474; in [12], 0.674; in [13], 0.399; in series [14], 0.36; in [15] it was 0.454. Moreover, the phosphorylation enrichment in series [16] turned out to be 0.44.
Take ALTDNYMYLVI [HAGH_Y61]: the SH2 binding enrichment came to 0.437 in series [1], 0.544 in series [2] and 0.819 in series [3]. In addition, the phosphorylation enrichment in series [4] stood at 8.82; in series [5], 2.46; in series [6], 8.35; in [7], 0.813; in [8], 3.34; in series [9], 6.43. Besides, the phosphorylation enrichment is 1.43 in series [10]; 1.34 in series [11]; 1.49 in series [12]; 9.55 in [13]; 0.848 in series [14]; 1.03 in series [15]. Further, in series [16], the phosphorylation enrichment is 3.5.
With AMGPVYQAAAL [HYOU1_Y421_A419P], the values for the SH2 binding enrichment in series [1], in series [2] and in series [3] were 0.528, 0.826 and 0.736, respectively. Besides, the phosphorylation enrichment amounted to 0.502 in [4]; 0.615 in series [5]; 1.25 in series [6]; 3.43 in series [7]; 1.03 in series [8]; 0.435 in series [9]. In addition, the phosphorylation enrichment came out at 0.657 in series [10]; 6.53 in [11]; 0.611 in series [12]; 0.933 in series [13]; 5.43 in series [14]; 4.05 in series [15]. Moreover, the phosphorylation enrichment in series [16] was determined as 6.15.
Turning to ANNPLYKEVTS [ITGB3_Y773_A776V], the SH2 binding enrichment in series [1] worked out at 0.733; in series [2], 0.563; in series [3], 1.07. Moreover, the phosphorylation enrichment in [4] stood at 0.495; in [5], 0.691; in series [6], 0.409; in series [7], 0.584; in [8], 0.481; in series [9], 0.58. The phosphorylation enrichment came to 0.695 in [10]; 0.551 in series [11]; 0.797 in [12]; 0.506 in [13]; 0.428 in series [14]; 0.467 in series [15]. The phosphorylation enrichment in series [16] was found to be 0.486.
Consider APVEDYGGGGG [B4GALT6_Y382_I379V], for which the SH2 binding enrichment in series [1] amounted to 0.425; in series [2] it was 0.768; in series [3], 0.764. In addition, the phosphorylation enrichment in series [4] was determined as 0.473; in series [5] it was 0.62; in [6] it was 0.552; in series [7], 0.481; in series [8], 0.418; in series [9], 0.641. Also, the phosphorylation enrichment was found to be 0.822 in series [10]; 0.452 in series [11]; 0.882 in series [12]; 0.503 in [13]; 0.496 in series [14]; 0.392 in [15]. The phosphorylation enrichment in [16] was found to be 0.409.
